{"source": "paper doi:10.1101/2022.08.17.504349", "molecular_target": "RGA5-HMA5 labeled with NT-647 (MST) (rice) (UniProt F7J0N2)", "test": "MST", "data": [{"substance": "AVR-PikD, recombinant (MST and HDX-MS) (natural protein)", "values": [{"measurement": "Kd", "value": 12, "unit": "µM"}]}]}
